The labels stand for the following.
B1: Hairpin Ribozyme (parent)
chain: GUCCUCUUUCACGUGCGCGUGAAAGAGAGAAGUGAACCAGAGAAACACACGUUGUGGUAUAUUACCUGGUA

In the data set the parent is B1. The data set can be described thus: self-cleavage, relative activity (ratio to wild type); higher = more cleavage; co-transcriptional.
Consider A49G C66A, for which the self-cleavage worked out at 0.302.
For A49G C66G the value was 0.192; for G54C A71U, 0.243.
As to G54C A71C, the self-cleavage is 0.961.
For U53C the value was 0.97.
For the variant U53A, the self-cleavage was determined as 1.01.
Take U53G: the self-cleavage amounted to 0.86.
Under A49C G56U stands 0.23.
A49G U67C: the self-cleavage was 0.125.
Regarding A49G U67G, the self-cleavage was found to be 0.195.
For C50A G51C the value was 0.36; for C50A G51A, 0.288.
On to C50A U70C, for which the self-cleavage was 0.244.
As for C50G C65A, the self-cleavage was 0.463.
For the variant A49U A71C, the self-cleavage came to 0.607.
Turning to C50A U58G, the self-cleavage was found to be 0.242.
Under U52C G68A stands 0.258; under U52C G68U, 0.311.
Turning to U52C G68C, the self-cleavage was 0.219.
Regarding A49C G68U, the self-cleavage is 0.118.
A49C G68C: the self-cleavage is 0.15.
As to A49C G68A, the self-cleavage worked out at 0.164.
Under U53C A64G stands 0.616; under G51A A61C, 0.0891.
Regarding U53G G69A, the self-cleavage came to 0.363.
Regarding C50A G57U, the self-cleavage was 0.128.
G51A C65U: the self-cleavage is 0.151.
In the case of A49C U55A, the self-cleavage came to 0.164.
For G51A C66U the value was 0.574; for U52G G68A, 0.407.
Under U53A U55A stands 0.0855; under C50A U63G, 0.2.
Consider C50A U63A, for which the self-cleavage amounted to 0.0698.
In the case of G51U C65U, the self-cleavage amounted to 0.284.
As for G51U C65A, the self-cleavage was determined as 1.21.
For G51C C66G, the self-cleavage is 0.206.
Regarding G51C U55C, the self-cleavage was found to be 0.306.
Take G51C U55G: the self-cleavage amounted to 0.268.
With U53A U60C, the self-cleavage came out at 1.31.
For G54A G68A the value was 0.206; for C50G U67G, 0.101; for C50G U67A, 0.274.
For the variant U53C A71G, the self-cleavage turned out to be 1.05.
Under U53C A71C stands 1.26; under U53G A64G, 0.599.
On to A49U G51A, for which the self-cleavage turned out to be 0.209.
Consider A49U G51C, for which the self-cleavage came to 0.166.
Under A49C G69C stands 0.241.
A49C U52G: the self-cleavage stood at 0.14.
As to A49C U52A, the self-cleavage was found to be 0.0356.
Take A49C G54A: the self-cleavage was determined as 0.235.
With U52G G56A, the self-cleavage was found to be 0.19.
For C50U G69U, the self-cleavage is 0.128.
Under G51U G57C stands 0.137; under G51U G57U, 0.271; under C50U U53C, 0.261.
For C50U U53G the value was 0.242; for A49G U62G, 0.0712.
For A49G U62A the value was 0.0894.
For the variant G54A U55G, the self-cleavage came out at 0.162.
For the variant G54A U55A, the self-cleavage came to 0.39.
Under U52G U67A stands 0.212; under C50A U60G, 0.248.
With C50U A64G, the self-cleavage is 0.216.
In the case of C50G U52C, the self-cleavage was determined as 0.155.
Consider A49U U67G, for which the self-cleavage was found to be 0.109.
Regarding C50U G68C, the self-cleavage stood at 0.246.
For U53C U58G the value was 0.948; for G54A C66U, 0.272.
For G54A C66A the value was 0.229; for G51C U58A, 0.653.
For A49G G69A, the self-cleavage amounted to 0.172.
Turning to A49G G69C, the self-cleavage worked out at 0.186.
For A49U C66U, the self-cleavage came out at 0.102.
On to A49U C66G, for which the self-cleavage turned out to be 0.136.
With A49U C66A, the self-cleavage amounted to 0.181.
For U52C U67G the value was 0.276; for C50A U53G, 0.395; for A49U U70A, 0.237.
Under A49U C50A stands 0.293.
Take A49U C50G: the self-cleavage was determined as 0.193.
Under U53G U62A stands 0.0694.
In the case of G54A U60C, the self-cleavage came out at 0.912.
Turning to G54A U60A, the self-cleavage is 0.409.
Consider C50U U70A, for which the self-cleavage was determined as 0.266.
For A49U C65A the value was 0.188; for U52A A64U, 0.177.
Under U52A G54A stands 0.621.
In the case of U53G A71G, the self-cleavage was 0.73.
Consider G54A U70C, for which the self-cleavage was 0.244.
Under G54A U70G stands 0.387; under G54A U70A, 0.409.
For A49C C50U the value was 0.122; for C50G G54C, 0.634.
Under A49U U60G stands 0.0756; under U53G U63C, 0.241.
On to U53G U63A, for which the self-cleavage is 0.13.
Regarding U53C U62A, the self-cleavage was determined as 0.119.
Under A49G G68A stands 0.147; under G51C G69C, 0.28; under A49U A59G, 0.091.
U53A G57C: the self-cleavage worked out at 0.145.
For U53G C65U, the self-cleavage was determined as 0.413.
Take U53G C65G: the self-cleavage was found to be 0.0347.
For G51U U63G the value was 0.16; for G51U U63A, 0.215; for G51U A71U, 0.793.
Under U52G C66G stands 0.215; under U52C A59G, 0.0564; under U52C A59C, 0.254.
For U52C G54A the value was 0.568.
On to G54A G56C, for which the self-cleavage was determined as 0.0439.
For U53A A61U the value was 0.248; for A49G C50G, 0.166.
With C50G U70A, the self-cleavage was 0.178.
For G51C U63G the value was 0.0973; for G51C U63A, 0.199.
Take U53C A59G: the self-cleavage is 0.303.
For A49U G69A the value was 0.136; for U52A G56C, 0.124; for U52A G56U, 0.196.
Take C48U U63G: the self-cleavage was 0.163.
A49G A61G: the self-cleavage was found to be 0.211.
Under A49G A61U stands 0.217; under A49U U55A, 1.03.
For U53A U63G the value was 0.249; for U53A U63A, 0.153; for C48U U70A, 0.152.
For C48U U70G the value was 0.211.
Turning to U52A G68C, the self-cleavage was determined as 0.231.
In the case of U53C U63A, the self-cleavage was determined as 0.177.
On to U53C U63C, for which the self-cleavage worked out at 0.0362.
Under U53C U63G stands 0.144; under C50U G54A, 0.864.
For C50G C66G the value was 0.0636; for C50U C65A, 0.359.
In the case of A49C C65U, the self-cleavage was 0.08.
Take U52C U53A: the self-cleavage was 1.07.
Under U52A C65U stands 0.328.
A49G U55A: the self-cleavage came out at 0.431.
As to A49U U62A, the self-cleavage amounted to 0.186.
For U53A A71G the value was 1.07.
Under G51U U55A stands 0.302; under G51U U55C, 0.245.
Under G51A G54C stands 0.36; under U53G U70A, 0.712; under U53G U70C, 0.783.
On to U52G U70A, for which the self-cleavage is 0.638.
For G51U U62C the value was 0.324.
For U52A C66G the value was 0.149; for U52A C66U, 0.604; for G51C U70A, 0.898.
For G51C U70C the value was 1.01; for U52C A61U, 0.226.
Turning to U52C A61C, the self-cleavage turned out to be 0.263.
Under U52C A61G stands 0.253.
For A49G U53A the value was 0.4; for U53A C65A, 0.901.
In the case of U53A C65G, the self-cleavage was 0.28.
For U53A C65U, the self-cleavage is 0.241.
Take C50U G57A: the self-cleavage was determined as 0.112.
Under U52C stands 0.97.
Under U52A stands 1.03; under U52G, 0.862; under U52G U60G, 0.298.
For U52G U60A the value was 0.4; for G51A U70G, 0.792.

The record behind these values is the RNAGym collection of RNA variant scans (doi:10.7554/elife.80360).
